Experimental data: patent publication US20210122813A1 (Kyowa Kirin, published 2021)

T1: human BMP10 mature dimer (manufactured by R & D Systems, Inc., Cat #2926-BP) (human, UniProt O95393 317-424)
T1 construct: Bought product; also called human mature BMP10; mature BMP10
T1 sequence: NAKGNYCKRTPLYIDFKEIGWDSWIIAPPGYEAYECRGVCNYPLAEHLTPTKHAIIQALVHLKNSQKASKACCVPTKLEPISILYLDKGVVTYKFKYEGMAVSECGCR


Target: T1, human BMP10 mature dimer (manufactured …)
Experiment: SPR (Biacore T100), antibody captured by anti-human IgG, human BMP10 mature dimer as analyte
Protocol: The binding activity of the anti-BMP10 antibody was measured as follows. An anti-human IgG antibody was immobilized on a CMS sensor chip (manufactured by GE Healthcare Bio-Sciences, Inc., BR100530) using Human Antibody Capture Kit (manufactured by GE Healthcare Bio-Sciences Corporation, Cat #BR-1008-39) according to the attached protocol. To a flow cell in which the anti-human IgG antibody was immobilized, the antibody prepared at 5 μg/mL was added at a flow rate of 10 μL/min for 10 seconds.
Subsequently, human mature BMP10 prepared at 5 concentrations by 3-fold serial dilution from the 100 ng/mL was added thereto at a flow rate of 30 μL/min, and a binding reaction was monitored for 1 minute and a dissociation reaction was monitored for 10 minutes. The obtained sensorgram was analyzed using Bia Evaluation Software (manufactured by GE Healthcare Bio-Sciences Corporation), and the kinetic constant of each antibody was calculated. The calculated association rate constant (ka), dissociation rate constant (kd), and dissociation constant [kd/ka=KD] of each antibody are shown in Table 4.

Binder | Kd [pM]
VLres04HVmut04 (antibody, V domains shown, Humanized 18C1 antibody; also called VLres04HVmut04 antibody; hz18C1 antibody) VH: QVQLQESGPDLVQPSQTLDITCTVSGFSLTTYNVHWVRQPPGKGLEWMGTMWNGGGIDYNSAFKSRLAISRDTSKNEVFLKMDSLQTDDTAKYFCARLGYYVDYWGQGILVTVSS VL: QFALIQSDSMSTSAGSTVKLSCKRSTGNIGSSYVYWYQQHEGRSPTTMIYDGDKRPDGVPDRFSGSIDSSSNSASLTINDVQIEDEAVYFCQSFSSGIKFIFGGGTKLTVL | 3.19
VLres14HVmut07 (antibody, V domains shown, Humanized 18C1 antibody; also called hz18C1 antibody; anti-BMP10 humanized antibody) VH: QVQLQESGPDLVQPSQTLDITCTVSGFSLTTYNVHWVRQPPGKGLEWMGTMWNGGGIDYNSAFKDRLAISRDTSKNQVSLKMDSLQTDDTAKYFCARLGYYVDYWGQGILVTVSS VL: QFVLIQSDSMSTSAGSTVKLSCKRSTGNIGSSYVYWYQQHEGRSPTTMIYDGDKRPDGVPDRFSGSIDSSSNSAFLTINDVQIEDEAVYFCQSFSSGIKFIFGGGTKLTVL | 2.99
VLres08HVmut04 (antibody, V domains shown, Humanized 18C1 antibody; also called hz18C1 antibody; anti-BMP10 humanized antibody) VH: QVQLQESGPDLVQPSQTLDITCTVSGFSLTTYNVHWVRQPPGKGLEWMGTMWNGGGIDYNSAFKSRLAISRDTSKNEVFLKMDSLQTDDTAKYFCARLGYYVDYWGQGILVTVSS VL: QFALIQSDSMSTSAGSTVKLSCKRSTGNIGSSYVYWYQQHEGRSPTTMIYDGDKRPDGVPDRFSGSIDSSSNSASLTINDVQVEDEAIYFCQSFSSGIKFIFGGGTKLTVL | 2.88
VLres06HVmut02 (antibody, V domains shown, Humanized 18C1 antibody; also called hz18C1 antibody; anti-BMP10 humanized antibody) VH: QVQLQESGPDLVKPSQTLDITCTVSGFSLTTYNVHWVRQPPGKGLEWMGTMWNGGGIDYNSAFKSRLTISRDTSKNQVFLKMDSLQTDDTAKYFCARLGYYVDYWGQGILVTVSS VL: QFVLIQSDSMSTSAGSTVKLSCKRSTGNIGSSYVYWYQQHEGRSPTTMIYDGDKRPDGVPDRFSGSIDSSSNSASLTINDVQVEDEAIYFCQSFSSGIKFIFGGGTKLTVL | 3.37
VLres02HVmut08 (antibody, V domains shown, Humanized 18C1 antibody; also called hz18C1 antibody; anti-BMP10 humanized antibody) VH: QVQLQESGPDLVKPSQTLDITCTVSGFSLTTYNVHWVRQPPGKGLEWMGTMWNGGGIDYNSAFKDRLTISRDTSKNQVFLKMDSLQTDDTAVYFCARLGYYVDYWGQGILVTVSS VL: QFVLIQSDSMSTSAGSTVKLSCKRSTGNIGSSYVYWYQQHEGRSPTTMIYDGDKRPDGVPDRFSGSIDSSSNSASLTINDVQIEDEAVYFCQSFSSGIKFIFGGGTKLTVL | 3.05
VLres04VHres16 (antibody, V domains shown, Humanized 18C1 antibody; also called VLres04VHres16 antibody; hz18C1 antibody) VH: QVQLKETGPDLVQPTQTLDITCTVSGFSLTTYNVHWVRQPPGKGLEWMGTMWNGGGIDYNSAFKSRLAISRDTSKSEVFLKMDSLQTDDTAKYFCARLGYYVDYWGQGIMVTVSS VL: QFALIQSDSMSTSAGSTVKLSCKRSTGNIGSSYVYWYQQHEGRSPTTMIYDGDKRPDGVPDRFSGSIDSSSNSASLTINDVQIEDEAVYFCQSFSSGIKFIFGGGTKLTVL | 3.21
VLres10HVmut08 (antibody, V domains shown, Humanized 18C1 antibody; also called hz18C1 antibody; anti-BMP10 humanized antibody) VH: QVQLQESGPDLVKPSQTLDITCTVSGFSLTTYNVHWVRQPPGKGLEWMGTMWNGGGIDYNSAFKDRLTISRDTSKNQVFLKMDSLQTDDTAVYFCARLGYYVDYWGQGILVTVSS VL: QFVLIQSDSMSTSAGSTVKLSCKRSTGNIGSSYVYWYQQHEGRSPTTMIYDGDKRPDGVPDRFSGSIDSSSNSASLTINNVQIEDEAVYFCQSFSSGIKFIFGGGTKLTVL | 3.06
VLres08HVmut08 (antibody, V domains shown, Humanized 18C1 antibody; also called hz18C1 antibody; anti-BMP10 humanized antibody) VH: QVQLQESGPDLVKPSQTLDITCTVSGFSLTTYNVHWVRQPPGKGLEWMGTMWNGGGIDYNSAFKDRLTISRDTSKNQVFLKMDSLQTDDTAVYFCARLGYYVDYWGQGILVTVSS VL: QFALIQSDSMSTSAGSTVKLSCKRSTGNIGSSYVYWYQQHEGRSPTTMIYDGDKRPDGVPDRFSGSIDSSSNSASLTINDVQVEDEAIYFCQSFSSGIKFIFGGGTKLTVL | 2.99
VLres07HVmut10 (antibody, V domains shown, Humanized 18C1 antibody; also called VLres07HVmut10 antibody; hz18C1 antibody) VH: QVQLQESGPDLVQPSQTLDITCTVSGFSLTTYNVHWVRQPPGKGLEWMGTMWNGGGIDYNSAFKDRLAISRDTSKNEVFLKMDSLQTDDTAVYFCARLGYYVDYWGQGILVTVSS VL: QFALIQSDSMSTSLGSTVTLSCKRSTGNIGSSYVYWYQQHEGRSPTTMIYDGDKRPDGVPDRFSGSIDSSSNSASLTINDVQVEDEAIYFCQSFSSGIKFIFGGGTKLTVL | 2.69
VLres14HVmut08 (antibody, V domains shown, Humanized 18C1 antibody; also called hz18C1 antibody; anti-BMP10 humanized antibody) VH: QVQLQESGPDLVKPSQTLDITCTVSGFSLTTYNVHWVRQPPGKGLEWMGTMWNGGGIDYNSAFKDRLTISRDTSKNQVFLKMDSLQTDDTAVYFCARLGYYVDYWGQGILVTVSS VL: QFVLIQSDSMSTSAGSTVKLSCKRSTGNIGSSYVYWYQQHEGRSPTTMIYDGDKRPDGVPDRFSGSIDSSSNSAFLTINDVQIEDEAVYFCQSFSSGIKFIFGGGTKLTVL | 2.71
VLres10VHres16 (antibody, V domains shown, Humanized 18C1 antibody; also called VLres10VHres16 antibody; hz18C1 antibody) VH: QVQLKETGPDLVQPTQTLDITCTVSGFSLTTYNVHWVRQPPGKGLEWMGTMWNGGGIDYNSAFKSRLAISRDTSKSEVFLKMDSLQTDDTAKYFCARLGYYVDYWGQGIMVTVSS VL: QFVLIQSDSMSTSAGSTVKLSCKRSTGNIGSSYVYWYQQHEGRSPTTMIYDGDKRPDGVPDRFSGSIDSSSNSASLTINNVQIEDEAVYFCQSFSSGIKFIFGGGTKLTVL | 3.57
VLres10HVmut02 (antibody, V domains shown, Humanized 18C1 antibody; also called VLres10HVmut02 antibody; hz18C1 antibody) VH: QVQLQESGPDLVKPSQTLDITCTVSGFSLTTYNVHWVRQPPGKGLEWMGTMWNGGGIDYNSAFKSRLTISRDTSKNQVFLKMDSLQTDDTAKYFCARLGYYVDYWGQGILVTVSS VL: QFVLIQSDSMSTSAGSTVKLSCKRSTGNIGSSYVYWYQQHEGRSPTTMIYDGDKRPDGVPDRFSGSIDSSSNSASLTINNVQIEDEAVYFCQSFSSGIKFIFGGGTKLTVL | 3.41

The remaining binders from weak to strong by Kd, led by results:

Kd [pM] | Binder
3.3 | VLres14VHres16 (antibody, V domains shown, Humanized 18C1 antibody; also called VLres14VHres16 antibody; hz18C1 antibody) VH: QVQLKETGPDLVQPTQTLDITCTVSGFSLTTYNVHWVRQPPGKGLEWMGTMWNGGGIDYNSAFKSRLAISRDTSKSEVFLKMDSLQTDDTAKYFCARLGYYVDYWGQGIMVTVSS VL: QFVLIQSDSMSTSAGSTVKLSCKRSTGNIGSSYVYWYQQHEGRSPTTMIYDGDKRPDGVPDRFSGSIDSSSNSAFLTINDVQIEDEAVYFCQSFSSGIKFIFGGGTKLTVL
3.25 | VLres08VHres16 (antibody, V domains shown, Humanized 18C1 antibody; also called VLres08VHres16 antibody; hz18C1 antibody) VH: QVQLKETGPDLVQPTQTLDITCTVSGFSLTTYNVHWVRQPPGKGLEWMGTMWNGGGIDYNSAFKSRLAISRDTSKSEVFLKMDSLQTDDTAKYFCARLGYYVDYWGQGIMVTVSS VL: QFALIQSDSMSTSAGSTVKLSCKRSTGNIGSSYVYWYQQHEGRSPTTMIYDGDKRPDGVPDRFSGSIDSSSNSASLTINDVQVEDEAIYFCQSFSSGIKFIFGGGTKLTVL
3.2 | VLres10HVmut04 (antibody, V domains shown, Humanized 18C1 antibody; also called hz18C1 antibody; anti-BMP10 humanized antibody) VH: QVQLQESGPDLVQPSQTLDITCTVSGFSLTTYNVHWVRQPPGKGLEWMGTMWNGGGIDYNSAFKSRLAISRDTSKNEVFLKMDSLQTDDTAKYFCARLGYYVDYWGQGILVTVSS VL: QFVLIQSDSMSTSAGSTVKLSCKRSTGNIGSSYVYWYQQHEGRSPTTMIYDGDKRPDGVPDRFSGSIDSSSNSASLTINNVQIEDEAVYFCQSFSSGIKFIFGGGTKLTVL
3.11 | VLres07VHres16 (antibody, V domains shown, Humanized 18C1 antibody; also called VLres07VHres16 antibody; hz18C1 antibody) VH: QVQLKETGPDLVQPTQTLDITCTVSGFSLTTYNVHWVRQPPGKGLEWMGTMWNGGGIDYNSAFKSRLAISRDTSKSEVFLKMDSLQTDDTAKYFCARLGYYVDYWGQGIMVTVSS VL: QFALIQSDSMSTSLGSTVTLSCKRSTGNIGSSYVYWYQQHEGRSPTTMIYDGDKRPDGVPDRFSGSIDSSSNSASLTINDVQVEDEAIYFCQSFSSGIKFIFGGGTKLTVL
2.97 | VLres02HVmut07 (antibody, V domains shown, Humanized 18C1 antibody; also called hz18C1 antibody; anti-BMP10 humanized antibody) VH: QVQLQESGPDLVQPSQTLDITCTVSGFSLTTYNVHWVRQPPGKGLEWMGTMWNGGGIDYNSAFKDRLAISRDTSKNQVSLKMDSLQTDDTAKYFCARLGYYVDYWGQGILVTVSS VL: QFVLIQSDSMSTSAGSTVKLSCKRSTGNIGSSYVYWYQQHEGRSPTTMIYDGDKRPDGVPDRFSGSIDSSSNSASLTINDVQIEDEAVYFCQSFSSGIKFIFGGGTKLTVL
2.94 | VLres06HVmut10 (antibody, V domains shown, Humanized 18C1 antibody; also called hz18C1 antibody; anti-BMP10 humanized antibody) VH: QVQLQESGPDLVQPSQTLDITCTVSGFSLTTYNVHWVRQPPGKGLEWMGTMWNGGGIDYNSAFKDRLAISRDTSKNEVFLKMDSLQTDDTAVYFCARLGYYVDYWGQGILVTVSS VL: QFVLIQSDSMSTSAGSTVKLSCKRSTGNIGSSYVYWYQQHEGRSPTTMIYDGDKRPDGVPDRFSGSIDSSSNSASLTINDVQVEDEAIYFCQSFSSGIKFIFGGGTKLTVL
2.84 | VLres14HVmut10 (antibody, V domains shown, Humanized 18C1 antibody; also called VLres14HVmut10 antibody; hz18C1 antibody) VH: QVQLQESGPDLVQPSQTLDITCTVSGFSLTTYNVHWVRQPPGKGLEWMGTMWNGGGIDYNSAFKDRLAISRDTSKNEVFLKMDSLQTDDTAVYFCARLGYYVDYWGQGILVTVSS VL: QFVLIQSDSMSTSAGSTVKLSCKRSTGNIGSSYVYWYQQHEGRSPTTMIYDGDKRPDGVPDRFSGSIDSSSNSAFLTINDVQIEDEAVYFCQSFSSGIKFIFGGGTKLTVL
2.19 | VLres10HVmut10 (antibody, V domains shown, Humanized 18C1 antibody; also called VLres10HVmut10 antibody; hz18C1 antibody) VH: QVQLQESGPDLVQPSQTLDITCTVSGFSLTTYNVHWVRQPPGKGLEWMGTMWNGGGIDYNSAFKDRLAISRDTSKNEVFLKMDSLQTDDTAVYFCARLGYYVDYWGQGILVTVSS VL: QFVLIQSDSMSTSAGSTVKLSCKRSTGNIGSSYVYWYQQHEGRSPTTMIYDGDKRPDGVPDRFSGSIDSSSNSASLTINNVQIEDEAVYFCQSFSSGIKFIFGGGTKLTVL
